# T1: Cullin-5 (Cul5) (UniProt Q93034 1-780)
# T1 construct: also called full-length Cul5
# T1 sequence: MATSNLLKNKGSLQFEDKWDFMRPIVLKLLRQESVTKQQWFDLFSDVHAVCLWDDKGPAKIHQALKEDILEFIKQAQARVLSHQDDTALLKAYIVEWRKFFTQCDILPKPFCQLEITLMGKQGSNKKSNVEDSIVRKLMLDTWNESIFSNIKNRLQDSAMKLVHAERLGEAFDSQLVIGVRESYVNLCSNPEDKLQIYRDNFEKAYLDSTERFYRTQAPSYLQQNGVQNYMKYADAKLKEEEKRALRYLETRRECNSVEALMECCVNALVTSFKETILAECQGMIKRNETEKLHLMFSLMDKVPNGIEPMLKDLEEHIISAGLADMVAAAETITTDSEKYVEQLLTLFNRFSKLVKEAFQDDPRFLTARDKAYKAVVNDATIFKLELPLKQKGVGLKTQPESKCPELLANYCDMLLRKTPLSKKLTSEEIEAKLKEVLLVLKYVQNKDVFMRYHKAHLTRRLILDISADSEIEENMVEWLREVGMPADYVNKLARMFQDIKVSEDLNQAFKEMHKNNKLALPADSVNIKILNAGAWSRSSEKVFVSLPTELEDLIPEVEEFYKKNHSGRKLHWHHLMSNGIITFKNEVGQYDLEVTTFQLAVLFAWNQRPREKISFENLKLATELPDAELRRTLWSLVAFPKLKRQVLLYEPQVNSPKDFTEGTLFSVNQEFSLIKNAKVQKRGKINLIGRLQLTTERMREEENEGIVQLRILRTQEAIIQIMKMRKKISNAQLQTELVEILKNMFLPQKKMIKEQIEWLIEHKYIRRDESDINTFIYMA
# B1: Rbx2 (natural protein)
# chain: MADVEDGEETCALASHSGSSGSKSGGDKMFSLKKWNAVAMWSWDVECDTCAICRVQVMDACLRCQAENKQEDCVVVWGECNHSFHNCCMSLWVKQNNRCPLCQQDWVVQRIGK
# notes: also called E2 docking protein Rbx2
# Target: T1, Cullin-5 (Cul5)
# Assay: cross-linking; DSSO cross-linking with LC-MS3 (XL-MS) of reconstituted complexes at ~5 uM in 20 mM HEPES pH 7.5, 300 mM NaCl, 10% glycerol; 37 °C, 30 min; cross-linked SDS-PAGE bands digested in gel with trypsin or chymotrypsin; data of the four complexes pooled
# Details: both partners purified
binder,measurement,value
B1,binding result,binds

# — publication PMC8459920 (Molecular & Cellular Proteomics : MCP, 2021)
